Where “and” joins values, the source holds several entries; their conditions need not be identical. Identical values can stand only once. Like-named read-outs stand apart in the source and are kept apart here.
Tests used:
Test in all cases: AUC
[1] = target: 22S protein of the mitotic apparatus, Arbacia punctulata (Arbacia punctulata)
[2] = target: 22S protein of the mitotic apparatus, Arbacia punctulata (Arbacia punctulata); remark: listed apart in the source
[3] = target: 22S protein of the mitotic apparatus, Arbacia punctulata (Arbacia punctulata); remark: listed apart in the source
[4] = target: 22S protein of the mitotic apparatus, Arbacia punctulata (Arbacia punctulata); remark: listed apart in the source
[5] = target: 22S protein of the mitotic apparatus, Arbacia punctulata (Arbacia punctulata); remark: listed apart in the source
[6] = target: 22S protein of the mitotic apparatus, Arbacia punctulata (Arbacia punctulata); remark: listed apart in the source
[7] = target: 22S protein of the mitotic apparatus, Strongylocentrotus droebachiensis (Strongylocentrotus droebachiensis)
[8] = target: 22S protein of the mitotic apparatus, Strongylocentrotus droebachiensis (Strongylocentrotus droebachiensis); remark: listed apart in the source
[9] = target: 22S protein of the mitotic apparatus, Strongylocentrotus droebachiensis (Strongylocentrotus droebachiensis); remark: listed apart in the source
AUC [10] = target: the molecule itself
AUC [11] = target: the molecule itself; remark: listed apart in the source

22S protein of the mitotic apparatus, Arbacia punctulata (natural protein)
stoichiometry N [1]: 2 | stoichiometry N [2]: 8 | stoichiometry N [3]: 6 and 4 and 2 | stoichiometry N [4]: 2 | stoichiometry N [5]: 2 | stoichiometry N [6]: 4 and 2 and 6

22S protein of the mitotic apparatus, Strongylocentrotus droebachiensis (natural protein)
stoichiometry N [7]: 8 | stoichiometry N [8]: 2 | stoichiometry N [9]: 2

B1: 22S protein of the mitotic apparatus, Strongylocentrotus purpuratus (natural protein)
chain: VPSGSLGSRPGTCPPQPSDQVMIEATRCSYVYGLTWDWNCNSQGQENYKCCQYENDIRICVPPIPADVDEEVGVEQPSQSVDQVRQAIQKTQDFIRKVGLYPAPDQRRRTTPTPDTVRWCVSSRCQMTKCQRMVSEFTYSPNMVPRKQWKCTQATSQEQCMFWIEQGWADIMTTREGQVYSANTTFNLKPIAYETTINDQQPEIQILKHYQNVTFALKSSRLVNPNTFSELRDKTTCHAGIDMPDFDMPASFADPVCNLIKEGVIPVTGNYIESFSDFVQESCVPGVLNMTYNKNGTYPLSLVTLCEDQQYKYSGIKGALSCLESGKGQVTFVDQKVIKKIMSDPNVRDNFQVVCRDESRPLDEEIFTDVTCHVGHTARPTIFINKNNTQQKETDIKTLVVKMMELYGNTDRDVNFNIFDSSVYDCGKCQMTGKPLNKNLIFLEESNTMKIVDDSKVYAGEVYAAYNVCSKLVPKPRAKICVTNVTEYEACRRFKGIAENIPEVKKVAWGCVLANSSIECMQAVHNNTADLFKANPMETFIAGKEFLLDPLMSVHRNDSVTMNHTYTRTLAVIKRSSLAKFPGLLSVPEGQPKYIKDLWKLKICSAGLKNFSAFHSPIGYLLANGTIPRIGSVFESVNRYFQATCVPEIEPETWRLDSDLLLGREMNWGFSSLNMYNFTGQEWLLWNTPATWNFLTYNRKVSTGLDIKKLIELKKQNLTSHIFNQNLSSPRNVELLDDLVGVEGISDLVKGVQDTIGPEGKQKMNMLRDRLSNSFPNFEAVRTLSDKVDIVNKMKDARQQRLQNKDHPFGNVIQETFQGHLMVDVFSKLLELRSDKISTLEEIISHVKTIPYLTDFKDVEITTVLKHPAIMSYVEIYFPRLSQTFVEPFDNVELREREFNRYTNPLWLSPKVHTYLDLVKNHQTEITKTCNSNLPLNFKGYEGALRCLKSGVADLASSTSRPSVTRTLRDTDLSTGWVHLQRPPPSLPQRQVVEIDVNMDIAKVCNFGEVMNPVLVTAYNTSGSWRWNITKALMIAHQSVALPALFGEGTVMGKDYDMLLPIAPLNQSYQPFLGSKPLRSMEAIVKASSYDWFKDQTGICYGETYTNIVKQRNETCQAIVKDVTCVGTPRMKKISVGRFGAKQFKMIKMCSRPSKFVRKMADFQCDNGFGYLKPVITAVACECMLCEEMIEYNTSFTEDNMWSDVSNKYVLTGEQDIYRQIPIWGNNSYFYDHTLNKNFELGNHSIIVEHVQTVVVERPSPGILSQVNSEVDPEVQVQMDSASLTKTCETVWNGQSWLPERFQGYKTSGSCVVPETGANAKSRVDRFRQIMQRKQQLVDHHH
modifications: carbohydrate 5-6% (orcein assay) or 7-8% (anthrone test), several per cent glucosamine; sites not stated
stoichiometry N (AUC [10]): 2 | stoichiometry N (AUC [11]): 8
